In paper PMC4938799, “LD Motif Recognition by Talin: Structure of the Talin-DLC1 Complex” (Structure(London, England:1993), 2016):
Read-outs that look alike come from different tables or passages of the source. Ends that are not written are not given here.

Columns and labels:
talin R8 domain = target: T1, talin R8 domain (Mus musculus, UniProt P26039); experiment: 1H,15N-HSQC NMR titration of talin R8 with peptides; assay type: binding
T1 construct: conducted using 0.1 mM [^15N]talin R8 domain; hexa-histidine tag followed by TEV protease cleavage site (N, cleaved yes); made in house; host or cells: E. coli BL21 STAR (DE3)
Description: NMR spectra were collected on Bruker Avance III 600- and 800-MHz spectrometers equipped with CryoProbes. Experiments were performed at 298 K in 20 mM sodium phosphate (pH 6.5) and 50 mM NaCl with 5% (v/v) ^2H2O. Dissociation constants were evaluated from the ^1H,^15N-HSQC chemical-shift changes in the titration experiments conducted using 0.1 mM [^15N]talin R8 domain. Peptides were added from 5- to 10-mM stock solutions to generate titration points at peptide/protein ratios 0.1, 0.2, 0.5, 0.75, 1, 2, 4, and 8.
NMR Spectroscopy - Spectra were processed with TopSpin (Bruker) and analysed using CCPN Analysis (Vranken et al., 2005). […] The changes in chemical shift of 15N-talin R8 domain were calculated from 1H,15N-HSQC spectra as Δδ=√(ΔδH2+(ΔδN*0.15)2). The cross-peaks corresponding to the bound state were assigned by following chemical shift changes throughout the R8 titration with the increasing amount of peptides.
Dissociation constants were evaluated from the 1H,15N-HSQC chemical shift changes in the titration experiments conducted using 0.1 mM 15N-talin R8 domain. Peptides were added from 5-10 mM stock solutions to generate titration points at 0.1, 0.2, 0.5, 0.75, 1, 2, 4 and 8 peptide:protein ratios.
Concentrations of the DLC1 and RIAM peptides were determined from UV absorbance at 280 nm. […]
Concentration of the R8 domain that lacks UV-active aromatic residues was estimated from the comparison with the spectra of the R3 domain that has similar molecular weight and shape using the calibration procedure described in (Wider and Dreier, 2006). Dissociation constants were determined by fitting the chemical shift changes to the equation:
( ) ( ) [𝑃] + [𝐿] + 𝐾𝑑 − √([𝑃] + [𝐿] + 𝐾𝑑)2 − 4[𝑃][𝐿] where ∆(𝐻, 𝑁)0 is the weighted chemical shift difference at saturation, [P] and [L] are protein and ligand concentrations, respectively. Data were fitted independently for the well-resolved peaks and the average Kd was calculated from 3 different peaks with the lowest standard deviations of the fits. […]

[1] = Solubility of peptides and protein fragments; assay type: physicochemical

T1 sequence (P26039 1461-1580 limits assumed): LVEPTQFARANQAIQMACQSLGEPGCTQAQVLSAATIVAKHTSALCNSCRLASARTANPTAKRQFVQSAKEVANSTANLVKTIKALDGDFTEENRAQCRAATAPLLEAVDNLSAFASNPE

DLC1(467–489): synthetic DLC1 peptide, residues 467–489; shorter fragment used for crystallization
chemical-shift changes / broadening of talin R8 on peptide addition (talin R8 domain; 1H,15N-HSQC, talin R8, 298 K, pH 6.5, 4-fold excess of peptide (DLC1(467–489), paxillin LD1) or titration): large chemical-shift changes | solubility [1]: less soluble than the longer fragment

ENEDIFPELDDILYHVKGMQRIVNQWSEK [DLC1(461–489)]
Kd (talin R8 domain; read-out: KD determined by fitting chemical-shift changes): 48 µM

MDDLDALLADLESTTS [paxillin LD1]
Kd (talin R8 domain): 168 µM
